Data published in PMC9638930, “Structural basis of flagellar motility regulation by the MogR repressor and the GmaR antirepressor in Listeria monocytogenes” (Nucleic Acids Research, 2022).

Tests used:
[1] = target: MogRD with individual mutation of the N154, I155 and F156 residues to alanine; assay: ELISA; wells coated with MogR protein (20 nM); three-fold serially diluted His6-tagged GmaRFL, 2 h at 18°C; detected with anti-His6 antibody
[2] = target: MogRD^S114A/Q117A/N118A/K122A (Listeria monocytogenes) (UniProt P0DJO8); assay: as above
[3] = target: His6-tagged GmaRFL protein; assay: ELISA
[4] = target: full-length GmaR (GmaRFL; residues 1–637) (Listeria monocytogenes); assay: SEC; Superdex 200 10/300 at room temperature, 20 mM Hepes pH 7.4, 150 mM NaCl, 5 mM βME; GmaRFL, MogRD and their 1:1 molar mixture
[5] = target: full-length GmaR (GmaRFL; residues 1–637) (Listeria monocytogenes); assay: ITC; MicroCal iTC200, 18°C; 250 μM MogRD injected into 25 μM GmaRFL or GmaR_(141-637); 20 mM Hepes pH 7.4, 150 mM NaCl, 5 mM βME; one-site binding model
[6] = target: full-length GmaR (GmaRFL; residues 1–637) (Listeria monocytogenes); assay: native gel or EMSA; native PAGE (6% gel, pH 8.8, Coomassie); GmaR incubated with MogR at a defined molar ratio at 18°C for 30 min in 20 mM Hepes pH 7.4, 150 mM NaCl, 5 mM βME
[7] = target: T1, MogR DBD protein (MogRD; residues 1–162) (Listeria monocytogenes, UniProt P0DJO8 1-162); assay: ITC; MicroCal iTC200, 18°C; 250 μM MogRD injected into 25 μM GmaRFL or GmaR_(141-637); 20 mM Hepes pH 7.4, 150 mM NaCl, 5 mM βME; one-site binding model; conditions: both partners purified
T1 construct: Monomer by gel filtration; also called MogR^GmaR; source: E. coli BL21 (DE3), purified (Ni-NTA, Mono S or Mono Q ion exchange); for the crystal co-purified with GmaR_(231-637)
T1 sequence: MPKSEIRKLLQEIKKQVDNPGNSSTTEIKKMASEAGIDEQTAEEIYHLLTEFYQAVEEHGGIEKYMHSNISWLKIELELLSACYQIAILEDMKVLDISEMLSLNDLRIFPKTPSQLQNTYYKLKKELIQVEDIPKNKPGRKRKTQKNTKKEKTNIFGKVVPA

[8] = target: T2, MogRD (MogR DNA-binding domain) (Listeria monocytogenes, UniProt P0DJO8 1-162); assay: FP; 20 mM Hepes pH 7.4, 150 mM NaCl, 5 mM bME; FP room temperature with 1 nM dsDNA; EMSA 18 C 30 min (GmaR inhibition assays at room temperature, 10 min, 2:1 MogR:dsDNA); conditions: protein: recombinant; tags: N-terminal His6, thrombin site; blunt
T2 sequence: T1 sequence

MogR1-151 [9] = target: T3, MogR1-151 (Listeria monocytogenes, UniProt P0DJO8 1-151); assay: as above; conditions: protein: recombinant; tags: N-terminal His6, thrombin site; blunt
T3 sequence: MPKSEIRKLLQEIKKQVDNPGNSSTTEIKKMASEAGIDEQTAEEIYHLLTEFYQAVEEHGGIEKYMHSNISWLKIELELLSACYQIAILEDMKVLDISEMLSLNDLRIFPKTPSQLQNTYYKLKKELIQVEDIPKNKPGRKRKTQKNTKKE

MogRD Site1-Ala [10] = target: T4, MogRD Site1-Ala (Listeria monocytogenes, UniProt P0DJO8 1-162, K152A;T153A;N154A;I155A;F156A); assay: FP; 100 nM MogR with GmaRFL; no inhibition; 20 mM Hepes pH 7.4, 150 mM NaCl, 5 mM bME; FP room temperature with 1 nM dsDNA; EMSA 18 C 30 min (GmaR inhibition assays at room temperature, 10 min, 2:1 MogR:dsDNA); conditions: protein: recombinant; tags: N-terminal His6, thrombin site; chain copies: 2; blunt
MogR1-151 [11] = target: T3, MogR1-151; assay: EMSA; 20 mM Hepes pH 7.4, 150 mM NaCl, 5 mM bME; FP room temperature with 1 nM dsDNA; EMSA 18 C 30 min (GmaR inhibition assays at room temperature, 10 min, 2:1 MogR:dsDNA); conditions: protein: recombinant; tags: N-terminal His6, thrombin site; label: none (ethidium bromide stain); blunt
MogRD Site1-Ala [12] = target: T4, MogRD Site1-Ala; assay: as above; conditions: protein: recombinant; tags: N-terminal His6, thrombin site; chain copies: 2; label: none (ethidium bromide stain); blunt
[13] = target: T2, MogRD (MogR DNA-binding domain); assay: EMSA; with GmaRFL pretreated at 37 C 15 min; inhibition lost; 20 mM Hepes pH 7.4, 150 mM NaCl, 5 mM bME; FP room temperature with 1 nM dsDNA; EMSA 18 C 30 min (GmaR inhibition assays at room temperature, 10 min, 2:1 MogR:dsDNA); conditions: protein: recombinant; tags: N-terminal His6, thrombin site; label: none (ethidium bromide stain); blunt
MogRD SiteMIG-Ala = MogRD SiteMIG-Ala (Listeria monocytogenes, UniProt P0DJO8 1-162, R140A;K141A;R142A;K143A;T144A); assay: EMSA or FP (Supplementary Fig S9; method and label not given in material); 20 mM Hepes pH 7.4, 150 mM NaCl, 5 mM bME; FP room temperature with 1 nM dsDNA; EMSA 18 C 30 min (GmaR inhibition assays at room temperature, 10 min, 2:1 MogR:dsDNA); conditions: protein: recombinant; tags: N-terminal His6, thrombin site; chain copies: 2; label: none (ethidium bromide stain); blunt

His6-tagged GmaRFL protein (natural protein)
fold reduction of GmaRFL-binding activity against MogRD [1]: 5 to 6 fold
fold lower GmaRFL-binding activity than MogRD [2]: 2 fold

MogR DBD protein (MogRD; residues 1–162) (from UniProt P0DJO8) F156A
EC50 ([3]; parent: 220 ± 81): 1420 nM

MogR DBD protein (MogRD; residues 1–162) (from UniProt P0DJO8) I155A
EC50 ([3]; parent: 220 ± 81): 1170 nM

MogR DBD protein (MogRD; residues 1–162) (from UniProt P0DJO8) K122A
EC50 ([3]; parent: 167 ± 18): 160 nM

MogR DBD protein (MogRD; residues 1–162) (from UniProt P0DJO8) K152A
EC50 ([3]; parent: 220 ± 81): 346 nM

MogR DBD protein (MogRD; residues 1–162) (from UniProt P0DJO8) N118A
EC50 ([3]; parent: 167 ± 18): 185 nM

MogR DBD protein (MogRD; residues 1–162) (from UniProt P0DJO8) N154A
EC50 ([3]; parent: 220 ± 81): 1230 nM

MogR DBD protein (MogRD; residues 1–162) (from UniProt P0DJO8) Q117A
EC50 ([3]; parent: 167 ± 18): 182 nM

MogR DBD protein (MogRD; residues 1–162) (from UniProt P0DJO8) S114A
EC50 ([3]; parent: 167 ± 18): 139 nM

MogR DBD protein (MogRD; residues 1–162) (from UniProt P0DJO8) S114A; Q117A; N118A; K122A
EC50 ([3]; parent: 167 ± 18): 342 nM

MogR DBD protein (MogRD; residues 1–162) (from UniProt P0DJO8) T112A
EC50 ([3]; parent: 167 ± 18): 165 nM

MogR DBD protein (MogRD; residues 1–162) (from UniProt P0DJO8) T153A
EC50 ([3]; parent: 220 ± 81): 518 nM

B1: MogR DBD protein (MogRD; residues 1–162) (domain or fragment)
chain: T1 sequence
stoichiometry N [4]: 1
Kd [5]: 13 nM
stoichiometry N [6]: 1

B2: N-terminally truncated GmaR protein (GmaR_(141-637); residues 141–637) (domain or fragment)
chain: RGVIHEQLEAIDKRPIAAGVAEVKIYHYGYMSEIVEKQDKSDRNLRLLEKEVKNNKNSGFVHFNIGQEMNRLGNKKEALKEFSEAFRLRDHNHYIWAKLSAYHIAELLEQEKRYDESLAIIEEARVIWPNVPEFPLKKANILYVNHQLEDAKEIYQSLLENAAIDYQPIVLYEATNFMPHKMLGTIYLEEKDYTRAMTHFSKAYAENSSDYGVMFQMIMLLSKFHQPKEIFAFMERHHFISSTETGLRLLSMTTQQGYAELSELIVQSLTDVYPPVAEATEVKIATIRNVFPVISESAILFGIKEELIDAADLCLWHYENPQLPIENVMKNSDVGDIYDFIFENGPRISKKRYLFVLERAIALGKGEFADYLLALRNVYHDSINSHIADLFFQYDFADIALDFYNIVDADEVTKQGYINLINYLVDADVLDEALAIAERGIDNFSTDFRFYLWAIKIDTENRANRISEAMDEFPNNRYLAKLLDEVTMLQDTVTNNR
Kd [7]: ~22 nM

B3: operator dsDNA, fluorescein-labeled (dsDNA)
DNA 1: ATTTGATTTTTTAAAAAAATGAAGA
DNA 2: TCTTCATTTTTTTAAAAAATCAAAT
binding result [8]: binds
binding result (MogR1-151 [9]): binds
binding result (MogRD Site1-Ala [10]): binds

B4: operator dsDNA, unlabeled (dsDNA)
DNA 1: ATTTGATTTTTTAAAAAAATGAAGA
DNA 2: TCTTCATTTTTTTAAAAAATCAAAT
binding result (MogR1-151 [11]): binds
binding result (MogRD Site1-Ala [12]): binds
binding result [13]: binds
binding result (MogRD SiteMIG-Ala): no binding
